The source of these data is publication doi:10.1101/318345v1.

In general, Km refers to the concentration of substrate that gives half-maximal velocity. As a reminder, the kcat is the maximal rate divided by the concentration of active sites.

Substrate in series [1]: O=C(O)C[C@H](C(=O)O)[C@@H](O)C(=O)O
Description: purified protein. The format is biochemical, Pseudomonas aeruginosa. Particulars: 200 μM NADP+, 5 mM MgCl2, pH 7.5, 37 °C.

Substrate in series [2]: NC(=O)c1ccc[n+]([C@@H]2O[C@H](COP(=O)(O)OP(=O)(O)OC[C@H]3O[C@@H](n4cnc5c(N)ncnc54)[C@H](OP(=O)(O)O)[C@@H]3O)[C@@H](O)[C@H]2O)c1
Description: purified protein. The format is biochemical, Pseudomonas aeruginosa. The note with it: 200 μM isocitrate, 5 mM MgCl2, pH 7.5, 37 °C.

B1: ICD (Pseudomonas aeruginosa PAO1) (protein)
chain: MGYQKIQVPATGDKITVNADMSLSVPKNPIIPFIEGDGIGVDISPVMIKVVDAAVEKAYKGERKIAWMEVYAGEKATQVYDQDTWLPQETLDAVRDYVVSIKGPLTTPVGGGIRSLNVALRQQLDLYVCQRPVRWFEGVPSPVKKPGDVDMVIFRENSEDIYAGVEWKAGSPEAEKVIKFLTEEMGVKKIRFTENCGIGIKPVSQEGTKRLVRKALQYAVDNDRSSVTLVHKGNIMKFTEGAFKDWGYEVARDEFGAELLDGGPWMQFKNPKTGKNVVVKDVIADAMLQQILLRPAEYDVIATLNLNGDYLSDALAAEVGGIGIAPGANLSDSVAMFEATHGTAPKYAGQDKVNPGSLILSAEMMLRHMGWTEAADLIIKGTNGAIAAKTVTYDFERLMDGATLLSCSEFGDAMIAKM
Turning to B1, in the series “purified protein [1]”, the Km worked out at 25.6 µM and the kcat worked out at 608.8 s⁻¹. In addition, in the series “purified protein [2]”, the Km came out at 32.3 µM and the turnover number (kcat) was 684.9 s⁻¹.

B2: IDH (Pseudomonas aeruginosa PAO1) (protein)
chain: MSIRSKITYTFTDEAPALATYSLLPIVKAFAASAGIDVETSDISLAGRILANFADRLEADQRIEDDLARLAVLATSPDANIIKLPNISASVPQLKGAIAELQGLGYKVPDFPEDPQTDEEKEVRARYAKILGSAVNPVLREGNSDRRAPAAVKAYARKHPHSMGKWSMASRSHADYMRGGDFFSSEQSITMAKAGDVRIEFVGKDGKVEVKKQLSLQEGEVLDSMFMSCGKLRDFFEKTLQDCKETGVMWSLHVKATMMKISHPIVFGHAVSVYYKDVFDKWGQLFEELGVNPNNGISSVYDKIKSLPASQQEEILHDIHEVYSHRPEMAMVDSVKGITNLHIPSDVIVDASMPAMIRNSGQMWGKDGKQKDTKAVMPESTYARIYQEMINFCKTNGAFDPTTMGSVPNVGLMAQKAEEYGSHDKTFEMTADGTMRVVLADGSVLMQHKVETGDIWRACQTKDAPIRDWVKLAVTRARQSDTPAIFWLDPERAHDRELRKKVELYLKDHDLTGLDISIMGYNEAIRVSMERLIRGKDTISVTGNVLRDYLTDLFPIMELGTSAKMLSIVPLMAGGGMYETGAGGSAPKHVQQLVEENYLRWDSLGEFLALAVSLEETGIKTGNAKAKLLGKALDEATGKLLDNNKSPSRKVGDIDNRGSHFYLAMYWAQALAAQNEDAELKAHFAPLAKALTEQEATIVAELNAVQGKPAEIGGYYRSNPELTSKVMRPSATFNAAIDSLA
B2: in the series “purified protein [1]”, the Km turned out to be 17.7 µM and the turnover number (kcat) was found to be 183.7 s⁻¹.
